Experimental data published in US20160355590A1.

Molecular target: HLA-DR on Raji cells, the Lym-1 antigen (HLA-Dr10) (human)
Assay: cell-based or functional assay

Substance Lym-1 CAR (on primary human T-cells) has a lysis of target Raji cells (LDH cytotoxicity assay) of 22%.
